The source of these data is article PMC9482650, “Quantitative fragmentomics allow affinity mapping of interactomes” (Nature Communications, 2022).

Some targets named below: CARD14, Q9BXL6; DVL2, O14641; LMO7, Q8WWI1; MAGIX, Q9H6Y5; NHERF4_3, Q86UT5; PARD3B_2, Q8TEW8; PDLIM4, P50479; PTPN13_2, Q12923; SCRIB_4, Q14160.
Holding throughout (test): holdup assay
Parameters in all cases: key: below the threshold = too weak to quantify, mostly under pKd 3.1 to 4
What all share (conditions): plain residues with an end cap or a label only (N-terminal biotin on a linker: ttds)

The target in the next experiment is T1, LNX2_4, Q8N448.
T1 sequence (Q8N448 595-690, limits assumed, looked up): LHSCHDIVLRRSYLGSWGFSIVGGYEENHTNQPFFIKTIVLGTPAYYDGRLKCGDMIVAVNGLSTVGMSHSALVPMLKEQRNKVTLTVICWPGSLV

A further experiment has as its target T2, NHERF1_2, O14745.
T2 sequence (O14745 149-244, limits assumed, looked up): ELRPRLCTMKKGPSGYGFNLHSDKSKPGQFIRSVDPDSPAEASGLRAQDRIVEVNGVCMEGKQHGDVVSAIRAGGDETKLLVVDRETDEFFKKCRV

The target in a further experiment is T3, PDZD2_1, O15018.
T3 sequence (O15018 80-192, limits assumed, looked up): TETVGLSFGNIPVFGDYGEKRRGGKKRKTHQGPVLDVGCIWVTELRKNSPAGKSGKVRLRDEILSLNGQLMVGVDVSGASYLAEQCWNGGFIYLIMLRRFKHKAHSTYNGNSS

A further experiment deals with T4, PDZD2_4, O15018.
T4 sequence (O15018 723-823, limits assumed, looked up): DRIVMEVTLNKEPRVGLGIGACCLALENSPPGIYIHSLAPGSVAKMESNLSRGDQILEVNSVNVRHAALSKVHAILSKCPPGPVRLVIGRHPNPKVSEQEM

A further experiment deals with T5, PDZD2_6, O15018.
T5 sequence (O15018 2745-2839, limits assumed, looked up): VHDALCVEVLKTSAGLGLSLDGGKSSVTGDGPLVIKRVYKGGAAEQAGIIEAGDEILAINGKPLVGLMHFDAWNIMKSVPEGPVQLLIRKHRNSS

Another experiment concerns the target T6, PDZD4, Q76G19.
T6 sequence (Q76G19 125-224, limits assumed, looked up): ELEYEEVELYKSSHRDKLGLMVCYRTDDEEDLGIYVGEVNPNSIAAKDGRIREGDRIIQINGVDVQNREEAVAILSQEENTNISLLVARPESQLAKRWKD

The target in the next experiment is T7, PDZRN3_2, Q9UPQ7.
T7 sequence (Q9UPQ7 414-513, limits assumed, looked up): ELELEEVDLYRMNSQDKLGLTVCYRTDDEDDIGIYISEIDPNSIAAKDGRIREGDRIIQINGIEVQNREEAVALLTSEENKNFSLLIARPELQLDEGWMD

For another experiment, the target named is T8, PTPN13_4, Q12923.
T8 sequence (Q12923 1783-1878, limits assumed, looked up): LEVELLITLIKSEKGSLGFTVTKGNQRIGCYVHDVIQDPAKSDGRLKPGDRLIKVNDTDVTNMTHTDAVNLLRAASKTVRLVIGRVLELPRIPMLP

A further experiment concerns the target T9, PTPN4, P29074.
T9 sequence (P29074 512-599, limits assumed, looked up): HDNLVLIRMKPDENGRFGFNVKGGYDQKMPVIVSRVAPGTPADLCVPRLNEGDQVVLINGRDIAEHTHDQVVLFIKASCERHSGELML

The target in the next experiment is T10, SHROOM3, Q8TF72.
T10 sequence (Q8TF72 20-120, limits assumed, looked up): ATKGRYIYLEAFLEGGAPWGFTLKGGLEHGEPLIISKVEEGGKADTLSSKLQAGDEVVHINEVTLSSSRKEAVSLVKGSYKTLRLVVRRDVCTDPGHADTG

The target of another experiment is T11, SIPA1L3, O60292.
T11 sequence (O60292 961-1052, limits assumed, looked up): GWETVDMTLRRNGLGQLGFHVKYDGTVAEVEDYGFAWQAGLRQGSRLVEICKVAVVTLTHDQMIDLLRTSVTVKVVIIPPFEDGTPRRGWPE

A further experiment addresses T12, SNTB2, Q13425.
T12 sequence (Q13425 110-208, limits assumed, looked up): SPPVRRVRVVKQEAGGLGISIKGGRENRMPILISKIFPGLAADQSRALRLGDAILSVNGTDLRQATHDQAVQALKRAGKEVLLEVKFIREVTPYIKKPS

The target of the next experiment is T13, TJP3_2, O95049.
T13 sequence (O95049 190-282, limits assumed, looked up): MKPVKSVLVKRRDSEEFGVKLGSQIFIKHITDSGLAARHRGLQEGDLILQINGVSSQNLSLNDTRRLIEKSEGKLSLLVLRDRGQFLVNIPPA

The target in a further experiment is T14, USH1C_3, Q9Y6N9.
T14 sequence (Q9Y6N9 447-547, limits assumed, looked up): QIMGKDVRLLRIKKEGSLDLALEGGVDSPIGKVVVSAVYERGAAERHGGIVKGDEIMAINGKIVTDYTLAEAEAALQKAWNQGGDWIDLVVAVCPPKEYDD

DVL2, O14641, sequence (O14641 260-359): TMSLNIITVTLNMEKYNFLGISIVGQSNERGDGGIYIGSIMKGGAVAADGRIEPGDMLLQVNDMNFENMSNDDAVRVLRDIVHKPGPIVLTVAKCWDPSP
CARD14, Q9BXL6, sequence (Q9BXL6 558-663): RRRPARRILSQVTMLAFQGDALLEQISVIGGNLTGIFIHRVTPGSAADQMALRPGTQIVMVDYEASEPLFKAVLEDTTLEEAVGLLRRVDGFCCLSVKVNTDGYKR
MAGIX, Q9H6Y5, sequence (Q9H6Y5 118-211): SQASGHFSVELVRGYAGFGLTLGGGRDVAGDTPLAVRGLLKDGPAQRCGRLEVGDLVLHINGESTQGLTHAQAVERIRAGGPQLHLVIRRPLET
PARD3B_2, Q8TEW8, sequence (Q8TEW8 376-471): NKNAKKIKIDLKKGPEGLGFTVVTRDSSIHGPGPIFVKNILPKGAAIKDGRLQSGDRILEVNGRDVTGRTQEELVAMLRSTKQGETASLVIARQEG
SCRIB_4, Q14160, sequence (Q14160 1095-1204): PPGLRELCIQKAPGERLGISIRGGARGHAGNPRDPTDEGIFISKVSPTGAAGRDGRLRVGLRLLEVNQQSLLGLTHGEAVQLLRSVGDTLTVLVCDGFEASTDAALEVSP
LMO7, Q8WWI1, sequence (Q8WWI1 1037-1138): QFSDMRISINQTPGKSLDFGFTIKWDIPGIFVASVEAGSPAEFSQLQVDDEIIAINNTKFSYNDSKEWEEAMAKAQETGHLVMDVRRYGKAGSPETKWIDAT
PTPN13_2, Q12923, sequence (Q12923 1363-1462): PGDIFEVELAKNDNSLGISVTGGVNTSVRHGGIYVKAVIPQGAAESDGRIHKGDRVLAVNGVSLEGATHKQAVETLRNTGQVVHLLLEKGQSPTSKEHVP
NHERF4_3, Q86UT5, sequence (Q86UT5 325-412): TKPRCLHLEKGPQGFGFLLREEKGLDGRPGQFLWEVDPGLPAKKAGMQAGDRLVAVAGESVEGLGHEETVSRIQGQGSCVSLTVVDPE
PDLIM4, P50479, sequence (P50479 1-83): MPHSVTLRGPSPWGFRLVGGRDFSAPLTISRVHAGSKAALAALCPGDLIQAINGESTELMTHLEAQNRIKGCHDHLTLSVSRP

Turning to RTRQRNETQV [HPV51-E6, P26554], the pKd with CARD14, Q9BXL6 was 4.34; with DVL2, O14641, 4.59; with LMO7, Q8WWI1, “below the threshold”; with LNX2_4, Q8N448 it was “below the threshold”; with MAGIX, Q9H6Y5, “below the threshold”; in the experiment with NHERF1_2, O14745, “below the threshold”. In addition, the negative-log Kd (pKd) result was “below the threshold” in the experiment with NHERF4_3, Q86UT5; 4.39 with PARD3B_2, Q8TEW8; “below the threshold” in the experiment with PDLIM4, P50479; “below the threshold” with PDZD2_1, O15018; 4.34 with PDZD2_4, O15018; “below the threshold” with PDZD2_6, O15018. For the same molecule, the negative-log Kd (pKd) result is “below the threshold” with PDZD4, Q76G19; 4.16 with PDZRN3_2, Q9UPQ7; “below the threshold” in the experiment with PTPN13_2, Q12923; “below the threshold” with PTPN13_4, Q12923; “below the threshold” in the experiment with PTPN4, P29074; 4.27 with SCRIB_4, Q14160. Also, the pKd result was “below the threshold” with SHROOM3, Q8TF72; “below the threshold” in the experiment with SIPA1L3, O60292; “below the threshold” with SNTB2, Q13425; “below the threshold” with TJP3_2, O95049; 4.16 with USH1C_3, Q9Y6N9.
